pKi: −log10 of the molar value.
Assays:
[1] = target: Human MMP-9 catalytic domain (BIOMOL, SE-244) (human) (UniProt P14780); assay: cell-based or functional assay
[2] = target: human MMP-2 (Biomol #SE-237) (human) (UniProt P08253); assay: Ki,app, enzyme inhibition assay (fluorogenic peptide substrate)
Chain of human MMP-2 (Biomol #SE-237) (human) (P08253 110-452 limits assumed): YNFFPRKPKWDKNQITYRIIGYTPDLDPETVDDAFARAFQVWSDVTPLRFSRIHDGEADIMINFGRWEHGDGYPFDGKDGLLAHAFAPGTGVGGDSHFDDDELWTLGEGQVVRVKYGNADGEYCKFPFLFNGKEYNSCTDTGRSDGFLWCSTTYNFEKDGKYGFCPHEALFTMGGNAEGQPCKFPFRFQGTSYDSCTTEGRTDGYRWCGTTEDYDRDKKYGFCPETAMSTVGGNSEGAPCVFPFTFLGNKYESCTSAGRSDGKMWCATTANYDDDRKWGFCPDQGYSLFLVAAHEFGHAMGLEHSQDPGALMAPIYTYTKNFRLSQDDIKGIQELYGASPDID

Chain of Human MMP-9 catalytic domain (BIOMOL, SE-244) (human) (P14780 107-457 limits assumed): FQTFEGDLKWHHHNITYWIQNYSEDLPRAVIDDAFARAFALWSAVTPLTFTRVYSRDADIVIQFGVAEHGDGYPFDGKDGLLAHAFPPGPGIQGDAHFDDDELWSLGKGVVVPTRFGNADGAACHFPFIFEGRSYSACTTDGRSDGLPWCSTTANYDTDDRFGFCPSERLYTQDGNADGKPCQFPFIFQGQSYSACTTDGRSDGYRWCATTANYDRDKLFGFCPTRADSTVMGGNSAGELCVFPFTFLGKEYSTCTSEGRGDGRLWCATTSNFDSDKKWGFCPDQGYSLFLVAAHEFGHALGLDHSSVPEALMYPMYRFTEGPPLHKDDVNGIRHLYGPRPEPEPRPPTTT

IC50 (enzyme inhibition) [1]	pKi [2]	Substance
> 500 nM		Anti-hMMP-9 R&D Systems pAb # AB911 (antibody)
	8.22	Anti-hMMP-2 R&D Systems pAb # AF902 (antibody)

Reference: patent US20110135573A1, “METALLOPROTEINASE 9 AND METALLOPROTEINASE 2 BINDING PROTEINS” (DYAX CORP., priority 2009, published 2011)
